In the supplement of paper PMC9732359:
± gives the uncertainty stated by the source.

Assay: protein stability index of a GFP-peptide fusion (yeast GPS) (PSI 1-4); higher = more stable; sorted into four equal gates, so the index is relative within each strain
Outline: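 Mid-log yeast cultures in leucine-free medium, carrying a pooled plasmid library, were sorted into four equal gates by their GFP/Cherry fluorescence ratio. Each plasmid expressed Cherry along with GFP fused upstream of a tiled 17-residue yeast protein peptide. Plasmids recovered from each gate were PCR-amplified and Illumina-sequenced, with reads assigned to strains by barcodes. The protein stability index was obtained by summing each gate's read frequency weighted by its gate number.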

NNEKVVQYLRSVQDLGG [YML031W/NDC1]
protein stability index (doa10∆): 3.1 ± 0.2
protein stability index (pdr5∆): 3.04 ± 0.27
protein stability index (san1∆): 3.44 ± 0.19
protein stability index (ubr1∆): 3.61 ± 0.24

LLERTREIHNEAESQLR [FAS2]
protein stability index (doa10∆): 2.97 ± 0.12
protein stability index (pdr5∆): 2 ± 0.087
protein stability index (san1∆): 2.21 ± 0.22
protein stability index (ubr1∆): 2.54 ± 0.08

EPTVRIQAVFCLTKFQD [YCG1]
protein stability index (doa10∆): 2.27 ± 0.05
protein stability index (pdr5∆): 2.53 ± 0.046
protein stability index (san1∆): 2.28 ± 0.063
protein stability index (ubr1∆): 2.78 ± 0.047

RARLKGKEGRIRGNLMG [RPO21]
protein stability index (doa10∆): 3.37 ± 0.097
protein stability index (pdr5∆): 3.19 ± 0.12
protein stability index (san1∆): 3.32 ± 0.088
protein stability index (ubr1∆): 2.96 ± 0.081

KGIAKEHAKWGPAAAIE [RPB3]
protein stability index (doa10∆): 3.11 ± 0.12
protein stability index (pdr5∆): 3.32 ± 0.1
protein stability index (san1∆): 3.06 ± 0.13
protein stability index (ubr1∆): 2.9 ± 0.055

MGVIKKKRSHHGKASRQ [SNF6]
protein stability index (doa10∆): 3.15 ± 0.14
protein stability index (pdr5∆): 3.15 ± 0.12

QQVEGKLSQMILDKIFY [RPN6]
protein stability index (doa10∆): 2.81 ± 0.074
protein stability index (pdr5∆): 2.84 ± 0.081
protein stability index (san1∆): 3.01 ± 0.096
protein stability index (ubr1∆): 2.94 ± 0.062

ATSQYLKQDLKKISSFK [YGL172W/NUP49]
protein stability index (doa10∆): 2.9 ± 0.064
protein stability index (pdr5∆): 2.56 ± 0.064
protein stability index (san1∆): 3.04 ± 0.051
protein stability index (ubr1∆): 3.06 ± 0.042

SEDSAVFKATSSTDEES [FAS1]
protein stability index (doa10∆): 3.03 ± 0.1
protein stability index (pdr5∆): 3.21 ± 0.11
protein stability index (san1∆): 2.93 ± 0.073
protein stability index (ubr1∆): 2.98 ± 0.067

NENEDEDEGTLNVAEII [ARP9]
protein stability index (doa10∆): 3.37 ± 0.13
protein stability index (pdr5∆): 2.91 ± 0.14
protein stability index (san1∆): 3.34 ± 0.072
protein stability index (ubr1∆): 2.13 ± 0.12

STTTSLHVPNLQPPKTS [SMC4]
protein stability index (doa10∆): 2.13 ± 0.036
protein stability index (pdr5∆): 2.33 ± 0.033
protein stability index (san1∆): 2.1 ± 0.046
protein stability index (ubr1∆): 1.93 ± 0.027

VLKTLIEKFEQVPDSLD [RPN6]
protein stability index (doa10∆): 3.16 ± 0.093
protein stability index (pdr5∆): 3.21 ± 0.081
protein stability index (san1∆): 3.37 ± 0.06
protein stability index (ubr1∆): 3.21 ± 0.086

LINLKISPLMKSQYNMV [SRB8]
protein stability index (doa10∆): 1.8 ± 0.085
protein stability index (pdr5∆): 1.59 ± 0.08
protein stability index (san1∆): 2.07 ± 0.14
protein stability index (ubr1∆): 1.53 ± 0.12

NILWAIYNSASKASMQK [YCS4]
protein stability index (doa10∆): 1.66 ± 0.13
protein stability index (pdr5∆): 2.11 ± 0.13
protein stability index (san1∆): 1.58 ± 0.22
protein stability index (ubr1∆): 2.18 ± 0.077

TAKKTNRSAYDSKNTPN [YDL088C/ASM4]
protein stability index (doa10∆): 2.68 ± 0.089
protein stability index (pdr5∆): 2.78 ± 0.065
protein stability index (san1∆): 2.94 ± 0.052
protein stability index (ubr1∆): 2.9 ± 0.084

SGSLFGSNNAQTSRGLF [YGL172W/NUP49]
protein stability index (doa10∆): 3.03 ± 0.073
protein stability index (pdr5∆): 3.01 ± 0.06
protein stability index (san1∆): 2.95 ± 0.047
protein stability index (ubr1∆): 2.84 ± 0.064

VFSESCSNESFASIPVS [SNU114]
protein stability index (doa10∆): 2.98 ± 0.061
protein stability index (pdr5∆): 3.29 ± 0.068
protein stability index (san1∆): 2.88 ± 0.062
protein stability index (ubr1∆): 3.12 ± 0.044

SEISSLKGKINNEMKSL [SMC1]
protein stability index (doa10∆): 3.09 ± 0.28
protein stability index (san1∆): 2.65 ± 0.27
protein stability index (ubr1∆): 3.18 ± 0.18

DNSATSYYELETIIFDS [RRI1]
protein stability index (doa10∆): 3.19 ± 0.076
protein stability index (pdr5∆): 3.17 ± 0.055
protein stability index (san1∆): 3.11 ± 0.042
protein stability index (ubr1∆): 3.06 ± 0.041

DEKGNEIKVGKQRFQGC [ARP9]
protein stability index (doa10∆): 2.88 ± 0.18
protein stability index (pdr5∆): 3.1 ± 0.17
protein stability index (san1∆): 3.06 ± 0.1
protein stability index (ubr1∆): 3.41 ± 0.1

LNEAPFPEENIIDAKTR [MCD1]
protein stability index (doa10∆): 3.12 ± 0.078
protein stability index (pdr5∆): 3.17 ± 0.052
protein stability index (san1∆): 3.136 ± 0.031
protein stability index (ubr1∆): 3.27 ± 0.051

ENSFYKKEASKTKWDRK [POP1]
protein stability index (doa10∆): 2.25 ± 0.063
protein stability index (pdr5∆): 2.37 ± 0.063
protein stability index (san1∆): 2.3 ± 0.068
protein stability index (ubr1∆): 2.22 ± 0.048

LAVKVHGGSRYATKDGV [QCR2]
protein stability index (doa10∆): 1.62 ± 0.11
protein stability index (pdr5∆): 1.18 ± 0.1
protein stability index (san1∆): 1.17 ± 0.26
protein stability index (ubr1∆): 1.07 ± 0.089

LQALKANDEEAYIKLLD [SNF2]
protein stability index (doa10∆): 2.91 ± 0.093
protein stability index (pdr5∆): 3.29 ± 0.1
protein stability index (san1∆): 3.36 ± 0.11
protein stability index (ubr1∆): 2.77 ± 0.2

FREAIVATEPLLDILVK [PRP8]
protein stability index (doa10∆): 1.86 ± 0.047
protein stability index (pdr5∆): 2.16 ± 0.043
protein stability index (san1∆): 1.96 ± 0.1
protein stability index (ubr1∆): 1.54 ± 0.031

PRLSHLSLTAVPSFLRP [GRR1]
protein stability index (doa10∆): 2.09 ± 0.042
protein stability index (pdr5∆): 1.93 ± 0.062
protein stability index (san1∆): 1.79 ± 0.074
protein stability index (ubr1∆): 2.18 ± 0.045

ECLPAEGHDWKAPTKLD [DIS3]
protein stability index (doa10∆): 3.27 ± 0.098
protein stability index (pdr5∆): 3.21 ± 0.082
protein stability index (san1∆): 3.35 ± 0.071
protein stability index (ubr1∆): 3.23 ± 0.079

GGSGNGDDVVNDVQGID [RPP1]
protein stability index (doa10∆): 3.54 ± 0.25
protein stability index (pdr5∆): 3.55 ± 0.25
protein stability index (san1∆): 3.27 ± 0.079
protein stability index (ubr1∆): 3.1 ± 0.1

IEPQVINYLALNAANYN [ECM29]
protein stability index (doa10∆): 3.37 ± 0.13
protein stability index (pdr5∆): 2.63 ± 0.12
protein stability index (san1∆): 2.15 ± 0.24
protein stability index (ubr1∆): 2.33 ± 0.078

EFANFELKDICSFAVTK [YML103C/NUP188]
protein stability index (doa10∆): 2.07 ± 0.072
protein stability index (pdr5∆): 2.29 ± 0.065
protein stability index (san1∆): 2.22 ± 0.12
protein stability index (ubr1∆): 2.05 ± 0.043

PLHSGKTSLMDLLVIDS [SNU114]
protein stability index (doa10∆): 2.48 ± 0.068
protein stability index (pdr5∆): 2.75 ± 0.085
protein stability index (san1∆): 2.81 ± 0.1
protein stability index (ubr1∆): 2.47 ± 0.048

DLSRNGRNGSNGNDESS [NUT1]
protein stability index (doa10∆): 3.19 ± 0.078
protein stability index (pdr5∆): 3.33 ± 0.09
protein stability index (san1∆): 3.18 ± 0.059
protein stability index (ubr1∆): 3.14 ± 0.068

LARRTDAPFNKVVLKAL [RPL18A]
protein stability index (doa10∆): 1.22 ± 0.057
protein stability index (pdr5∆): 1.28 ± 0.048
protein stability index (san1∆): 1.18 ± 0.12
protein stability index (ubr1∆): 1.45 ± 0.068

QWIKFLLHTLYLRPASA [SSN8]
protein stability index (doa10∆): 1.81 ± 0.051
protein stability index (pdr5∆): 1.59 ± 0.042
protein stability index (san1∆): 1.4 ± 0.073
protein stability index (ubr1∆): 1.72 ± 0.035

EVNISSLDAREANFDLI [RPC40]
protein stability index (doa10∆): 3.4 ± 0.11
protein stability index (pdr5∆): 3.37 ± 0.095
protein stability index (san1∆): 3.17 ± 0.095
protein stability index (ubr1∆): 3.22 ± 0.068

GLRTENVLDYFAESPFF [MED6]
protein stability index (doa10∆): 3.35 ± 0.12
protein stability index (pdr5∆): 3.25 ± 0.18
protein stability index (san1∆): 2.94 ± 0.077
protein stability index (ubr1∆): 2.83 ± 0.047

KHDSLRYRLLSDVSDFE [RPN1]
protein stability index (doa10∆): 2.7 ± 0.09
protein stability index (pdr5∆): 3.04 ± 0.1
protein stability index (san1∆): 2.75 ± 0.089
protein stability index (ubr1∆): 2.66 ± 0.098

QIMQNPTHYKIPAWFLN [RPS18A]
protein stability index (doa10∆): 2.02 ± 0.072
protein stability index (pdr5∆): 1.99 ± 0.071
protein stability index (san1∆): 1.66 ± 0.084
protein stability index (ubr1∆): 1.6 ± 0.048

LDDEKIFSQTTNSTYNP [YJL039C/NUP192]
protein stability index (doa10∆): 2.78 ± 0.061
protein stability index (pdr5∆): 2.85 ± 0.053
protein stability index (san1∆): 2.91 ± 0.062
protein stability index (ubr1∆): 3.08 ± 0.045

YGTRPLVLPPVVTSSVA [SNF2]
protein stability index (doa10∆): 2.04 ± 0.086
protein stability index (pdr5∆): 2.06 ± 0.071
protein stability index (san1∆): 1.76 ± 0.12
protein stability index (ubr1∆): 1.94 ± 0.051

TIETFNEAALVVNITHH [RPB5]
protein stability index (doa10∆): 1.69 ± 0.11
protein stability index (pdr5∆): 1.92 ± 0.061
protein stability index (san1∆): 1.64 ± 0.16
protein stability index (ubr1∆): 1.58 ± 0.13

LTRFSHDADLEVSMNSI [RPN1]
protein stability index (doa10∆): 3.24 ± 0.099
protein stability index (pdr5∆): 3.14 ± 0.056
protein stability index (san1∆): 3.08 ± 0.05
protein stability index (ubr1∆): 3.1 ± 0.037

DTFVHVTDLSGKETIAR [RPS14B]
protein stability index (doa10∆): 2.88 ± 0.087
protein stability index (pdr5∆): 2.98 ± 0.066
protein stability index (san1∆): 2.83 ± 0.062
protein stability index (ubr1∆): 2.98 ± 0.058

PIPVQGEIEIKPNEEEE [RPN13]
protein stability index (doa10∆): 2.45 ± 0.081
protein stability index (pdr5∆): 2.59 ± 0.067
protein stability index (san1∆): 2.58 ± 0.15
protein stability index (ubr1∆): 2.67 ± 0.1

RFMRFLADRDEFIQDSA [ECM29]
protein stability index (doa10∆): 1.87 ± 0.052
protein stability index (pdr5∆): 1.23 ± 0.042
protein stability index (san1∆): 1.21 ± 0.094
protein stability index (ubr1∆): 2.26 ± 0.029

VWGSETVASSKVGYTLP [RPL4A]
protein stability index (doa10∆): 3.03 ± 0.059
protein stability index (pdr5∆): 3.15 ± 0.049
protein stability index (san1∆): 3.14 ± 0.034
protein stability index (ubr1∆): 3.156 ± 0.031

NSAIANEQEEKSEEVKA [RPC37]
protein stability index (doa10∆): 2.61 ± 0.08
protein stability index (pdr5∆): 2.79 ± 0.11
protein stability index (san1∆): 2.61 ± 0.055
protein stability index (ubr1∆): 2.62 ± 0.08

AIYNNPTRIRTKSSKEF [RRI2]
protein stability index (doa10∆): 1.41 ± 0.068
protein stability index (pdr5∆): 1.67 ± 0.06
protein stability index (san1∆): 1.68 ± 0.1
protein stability index (ubr1∆): 1.55 ± 0.061

AFGVSVAFLDNDLGKFI [RPN7]
protein stability index (doa10∆): 3.17 ± 0.086
protein stability index (pdr5∆): 3.16 ± 0.1
protein stability index (san1∆): 3.07 ± 0.081
protein stability index (ubr1∆): 3.28 ± 0.057

DVPAYNVTSFMPFWKFF [SRB8]
protein stability index (doa10∆): 1.62 ± 0.037
protein stability index (pdr5∆): 1.68 ± 0.04
protein stability index (san1∆): 1.5 ± 0.06
protein stability index (ubr1∆): 1.56 ± 0.031

VAATITSSQKEPFFLVT [SRB8]
protein stability index (doa10∆): 1.8 ± 0.071
protein stability index (pdr5∆): 2.17 ± 0.086
protein stability index (san1∆): 2.12 ± 0.083
protein stability index (ubr1∆): 2.21 ± 0.075

VAIGNTYGFLTPNLWAE [RPS2]
protein stability index (doa10∆): 2.26 ± 0.073
protein stability index (pdr5∆): 2.49 ± 0.054
protein stability index (san1∆): 2.36 ± 0.089
protein stability index (ubr1∆): 2.43 ± 0.04

DTKDALSTRELAGKVGS [RPC53]
protein stability index (doa10∆): 2.8 ± 0.08
protein stability index (pdr5∆): 2.27 ± 0.084
protein stability index (san1∆): 2.79 ± 0.1
protein stability index (ubr1∆): 3.08 ± 0.071

DVIHFEDSSILQSIVNE [PCI8]
protein stability index (doa10∆): 3.21 ± 0.089
protein stability index (pdr5∆): 3.06 ± 0.076
protein stability index (san1∆): 3.04 ± 0.05
protein stability index (ubr1∆): 3.47 ± 0.073
